Values of other authors as cited in publication PMC8044989.

Molecular target: RXFP3 (Homo sapiens) (UniProt Q9NSD7)
UniProt Q9NSD7, sequence (Q9NSD7 whole entry): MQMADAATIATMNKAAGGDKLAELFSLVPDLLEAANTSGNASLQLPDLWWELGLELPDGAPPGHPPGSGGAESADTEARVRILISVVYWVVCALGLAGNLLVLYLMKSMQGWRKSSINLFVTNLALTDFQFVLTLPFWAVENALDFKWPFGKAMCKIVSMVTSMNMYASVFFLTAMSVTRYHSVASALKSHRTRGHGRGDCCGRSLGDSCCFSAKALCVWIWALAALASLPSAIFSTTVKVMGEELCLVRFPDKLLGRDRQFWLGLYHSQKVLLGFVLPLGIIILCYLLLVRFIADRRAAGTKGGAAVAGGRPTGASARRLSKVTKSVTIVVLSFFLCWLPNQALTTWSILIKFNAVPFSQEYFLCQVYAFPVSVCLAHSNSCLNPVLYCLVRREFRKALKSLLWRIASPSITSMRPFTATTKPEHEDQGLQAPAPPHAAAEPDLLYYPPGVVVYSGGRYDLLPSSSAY

Kd: 0.3 nM
Substance: relaxin-3 (from UniProt Q8WXF3)
